Source: publication PMC6028960, “The kinetochore proteins CENP-E and CENP-F directly and specifically interact with distinct BUB mitotic checkpoint Ser/Thr kinases” (The Journal of Biological Chemistry, 2018)

B1: eGFP-CENP-E^2070-C (domain or fragment, human, UniProt Q02224 2070-2701, looked up)
chain: RQNHQVKPEKRLLSDGQQHLTESLREKCSRIKELLKRYSEMDDHYECLNRLSLDLEKEIEFQKELSMRVKANLSLPYLQTKHIEKLFTANQRCSMEFHRIMKKLKYVLSYVTKIKEEQHESINKFEMDFIDEVEKQKELLIKIQHLQQDCDVPSRELRDLKLNQNMDLHIEEILKDFSESEFPSIKTEFQQVLSNRKEMTQFLEEWLNTRFDIEKLKNGIQKENDRICQVNNFFNNRIIAIMNESTEFEERSATISKEWEQDLKSLKEKNEKLFKNYQTLKTSLASGAQVNPTTQDNKNPHVTSRATQLTTEKIRELENSLHEAKESAMHKESKIIKMQKELEVTNDIIAKLQAKVHESNKCLEKTKETIQVLQDKVALGAKPYKEEIEDLKMKLVKIDLEKMKNAKEFEKEISATKATVEYQKEVIRLLRENLRRSQQAQDTSVISEHTDPQPSNKPLTCGGGSGIVQNTKALILKSEHIRLEKEISKLKQQNEQLIKQKNELLSNNQHLSNEVKTWKERTLKREAHKQVTCENSPKSPKVTGTASKKKQITPSQCKERNLQDPVPKESPKSCFFDSRSKSLPSPHPVRYFDNSSLGLCPEVQNAGAESVDSQPGPWHASSGKDVPECKTQ
notes: codon-optimized cDNA; N-terminal PreScission-cleavable His6-eGFP tag from the pLIB-eGFP vector; source: insect cells (baculovirus made in Sf9, Tnao38 infected), purified (HisTrap, Superose 6 SEC); not shown: eGFP, N-terminal, kept

Tests used:
[1] = biological target: the molecule itself; assay: AUC; sedimentation velocity, 42,000 rpm, 20 °C; 6 μM mCherry-CENP-F fragment alone, scanned at 587 nm; self-association
BUBR1/BUB3 complex = biological target: T1, BUBR1/BUB3 complex (human | , UniProt O60566 1-1050; O43684 1-328); assay: SEC; analytical SEC; 4 μM BUB1 or BUBR1 constructs or BUB1/BUB3 or BUBR1/BUB3 complexes mixed with 16 μM CENP-E or CENP-F proteins in 30 μl; 4 °C; Superose 6 5/150 or Superdex 75 5/150; 50 mM Hepes pH 8.0, 100 mM NaCl, 5% glycerol, 0.5 mM TCEP; fractions by SDS-PAGE; conditions: both partners purified
T1 construct: human BUB1-related (BUBR1) mitotic checkpoint Ser/Thr kinase, full-length, co-expressed with BUB3; BUB3, co-expressed with BUBR1; also called dimeric BUBR1/BUB3 complex
T1 sequence (O43684 whole entry, one chain of several): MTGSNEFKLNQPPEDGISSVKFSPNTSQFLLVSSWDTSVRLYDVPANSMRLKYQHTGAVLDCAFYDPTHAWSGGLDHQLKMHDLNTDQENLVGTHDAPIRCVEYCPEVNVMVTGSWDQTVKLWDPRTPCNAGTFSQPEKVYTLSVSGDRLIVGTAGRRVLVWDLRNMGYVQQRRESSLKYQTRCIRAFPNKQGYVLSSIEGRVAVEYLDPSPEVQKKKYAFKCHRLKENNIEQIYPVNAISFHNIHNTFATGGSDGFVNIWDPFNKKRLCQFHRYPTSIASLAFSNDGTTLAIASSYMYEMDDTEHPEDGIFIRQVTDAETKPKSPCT

eGFP-CENP-E^2070-C = biological target: B1; assay: as above; conditions: both partners purified

Binder | stoichiometry N [1] | further results
mCherry-CENP-F(2866–2990) (domain or fragment, human, UniProt P49454 2770-2894, looked up, Dimer by sedimentation velocity AUC; source: E. coli BL21 (DE3) RP plus, purified (HisTrap, Superdex 75 SEC); not shown: mCherry, N-terminal, kept) LKKTKMDNLKYVNQLKKENERAQGKMKLLIKSCKQLEEEKEILQKELSQLQAAQEKQKTGTVMDTKVDELTTEIKELKETLEEKTKEADEYLDKYCSLLISHEKLEKAKEMLETQVAHLCSQQSK | 2 | –
mCherry-CENP-F(2922–2990) (domain or fragment, human, UniProt P49454 2826-2894, looked up, Dimer by sedimentation velocity AUC; source: E. coli BL21 (DE3) RP plus, purified (HisTrap, Superdex 75 SEC); not shown: mCherry, N-terminal, kept) QKTGTVMDTKVDELTTEIKELKETLEEKTKEADEYLDKYCSLLISHEKLEKAKEMLETQVAHLCSQQSK | 2 | –
B1 | – | binding result (BUBR1/BUB3 complex): binds
BUBR1 pseudokinase domain (KinD, residues 705–1050) (domain or fragment, human, UniProt O60566 705-1050, looked up, human BUBR1, pseudokinase domain, residues 705-1050; also called BUBR1 pseudo-kinase domain (KinD) construct; BUBR1 KinD) EKLELTNETSENPTQSPWCSQYRRQLLKSLPELSASAELCIEDRPMPKLEIEKEIELGNEDYCIKREYLICEDYKLFWVAPRNSAELTVIKVSSQPVPWDFYINLKLKERLNEDFDHFCSCYQYQDGCIVWHQYINCFTLQDLLQHSEYITHEITVLIIYNLLTIVEMLHKAEIVHGDLSPRCLILRNRIHDPYDCNKNNQALKIVDFSYSVDLRVQLDVFTLSGFRTVQILEGQKILANCSSPYQVDLFGIADLAHLLLFKEHLQVFWDGSFWKLSQNISELKDGELWNKFFVRILNANDEATVSVLGELAAEMNGVFDTTFQSHLNKALWKVGKLTSPGALLFQ | – | binding result (eGFP-CENP-E^2070-C): binds
